Molecular target: the molecule itself
Assay: SEC-MALS; Superdex 200 Increase 10/300; 20 mM Tris-HCl pH 8.0, 150 mM NaCl; 0.5 mL/min; His6-TRAF6-CC at 1 and 6.57 mg/ml, tagless TRAF6-CC at 0.934 and 1.57 mg/ml; calibrated with BSA

| Protein | stoichiometry N |
| --- | --- |
| His6-THROM-TRAF6-CC (human TRAF6 coiled-coil domain, residues 288-348, with N-terminal His6 tag and thrombin cleavage site) (domain or fragment, UniProt Q9Y4K3 288-348, looked up, TRAF6, human, UniProt Q9Y4K3, coiled-coil domain, residues Y288-Q348; Cloned in pET28a between NdeI and XhoI; a thrombin cleavage site lies between the His6 tag and the domain; Printed mass of the tagged monomer is 9.61 kDa; also called His6-TRAF6-CC; hexahistidine-tagged TRAF6-CC; source: E. coli BL21-CodonPlus (DE3) RIPL, purified (Ni-NTA, SEC); not shown: His6, N-terminal, kept) YISEVRNFQETIHQLEGRLVRQDHQIRELTAKMETQSMYVSELKRTIRTLEDKVAEIEAQQ | 3 |
| tagless TRAF6-CC (human TRAF6 coiled-coil domain, residues 288-348, His6 tag removed by thrombin) (domain or fragment, UniProt Q9Y4K3 288-348, looked up, TRAF6, human, UniProt Q9Y4K3, coiled-coil domain, residues Y288-Q348; Made from m1 by bovine thrombin; source: E. coli BL21-CodonPlus (DE3) RIPL, purified (Ni-NTA, thrombin cleavage, reverse Ni-NTA, SEC); not shown: His6, N-terminal, cleaved) YISEVRNFQETIHQLEGRLVRQDHQIRELTAKMETQSMYVSELKRTIRTLEDKVAEIEAQQ | 3 |

From paper doi:10.64898/2025.12.24.696318, “TRAF6 coiled-coil domain mediates its trimerization” (bioRxiv, 2025)
